B1: human FK506 Binding Protein 51 (FKBP51) (other)
chain: MTTDEGAKNNEESPTATVAEQGEDITSKKDRGVLKIVKRVGNGEETPMIGDKVYVHYKGKLSNGKKFDSSHDRNEPFVFSLGKGQVIKAWDIGVATMKKGEICHLLCKPEYAYGSAGSLPKIPSNATLFFEIELLDFKGEDLFEDGGIIRRTKRKGEGYSNPNEGATVEIHLEGRCGGRMFDCRDVAFTVGEGEDHDIPIGIDKALEKMQREEQCILYLGPRYGFGEAGKPKFGIEPNAELIYEVTLKSFEKAKESWEMDTKEKLEQAAIVKEKGTVYFKGGKYMQAVIQYGKIVSWLEMEYGLSEKESKASESFLLAAFLNLAMCYLKLREYTKAVECCDKALGLDSANEKGLYRRGEAQLLMNEFESAKGDFEKVLEVNPQNKAARLQISMCQKKAKEHNERDRRIYANMFKKFAEQDAKEEANKAMGKKTSEGVTNEKGTDSQAMEEEKPEGHV
notes: Endogenous protein in peripheral blood (lymphocyte) lysate of patients and controls
B2: human glucocorticoid receptor (GR) (receptor)
chain: MDSKESLTPGREENPSSVLAQERGDVMDFYKTLRGGATVKVSASSPSLAVASQSDSKQRRLLVDFPKGSVSNAQQPDLSKAVSLSMGLYMGETETKVMGNDLGFPQQGQISLSSGETDLKLLEESIANLNRSTSVPENPKSSASTAVSAAPTEKEFPKTHSDVSSEQQHLKGQTGTNGGNVKLYTTDQSTFDILQDLEFSSGSPGKETNESPWRSDLLIDENCLLSPLAGEDDSFLLEGNSNEDCKPLILPDTKPKIKDNGDLVLSSPSNVTLPQVKTEKEDFIELCTPGVIKQEKLGTVYCQASFPGANIIGNKMSAISVHGVSTSGGQMYHYDMNTASLSQQQDQKPIFNVIPPIPVGSENWNRCQGSGDDNLTSLGTLNFPGRTVFSNGYSSPSMRPDVSSPPSSSSTATTGPPPKLCLVCSDEASGCHYGVLTCGSCKVFFKRAVEGQHNYLCAGRNDCIIDKIRRKNCPACRYRKCLQAGMNLEARKTKKKIKGIQQATTGVSQETSENPGNKTIVPATLPQLTPTLVSLLEVIEPEVLYAGYDSSVPDSTWRIMTTLNMLGGRQVIAAVKWAKAIPGFRNLHLDDQMTLLQYSWMFLMAFALGWRSYRQSSANLLCFAPDLIINEQRMTLPCMYDQCKHMLYVSSELHRLQVSYEEYLCMKTLLLLSSVPKDGLKSQELFDEIRMTYIKELGKAIVKREGNSSQNWQRFYQLTKLLDSMHEVVENLLNYCFQTFLDKTMSIEFPEMLAEIITNQIPKYSNGNIKKLLFHQK
notes: as for B1

Columns and labels:
[1] = target: B2; assay: co-immunoprecipitation with anti-FKBP51 antibody from human peripheral blood protein, Western blot for GR
[2] = target: B1; assay: co-immunoprecipitation from human peripheral blood samples, densitometry, n=21
[3] = target: B1; assay: co-immunoprecipitation from human peripheral blood samples, densitometry, n=22
[4] = target: T1, Flag-tagged GR, wild-type (human, UniProt P04150 1-777); assay: SPR (Reichert SR7500DC, 25 C), FLAG-tagged GR captured on FLAG antibody-coated chip, GST-FKBP51_TPR injected
T1 construct: Expressed in HEK293(T) cells; also called Flag-GR; WT-GR; not shown: Flag tag
T1 sequence: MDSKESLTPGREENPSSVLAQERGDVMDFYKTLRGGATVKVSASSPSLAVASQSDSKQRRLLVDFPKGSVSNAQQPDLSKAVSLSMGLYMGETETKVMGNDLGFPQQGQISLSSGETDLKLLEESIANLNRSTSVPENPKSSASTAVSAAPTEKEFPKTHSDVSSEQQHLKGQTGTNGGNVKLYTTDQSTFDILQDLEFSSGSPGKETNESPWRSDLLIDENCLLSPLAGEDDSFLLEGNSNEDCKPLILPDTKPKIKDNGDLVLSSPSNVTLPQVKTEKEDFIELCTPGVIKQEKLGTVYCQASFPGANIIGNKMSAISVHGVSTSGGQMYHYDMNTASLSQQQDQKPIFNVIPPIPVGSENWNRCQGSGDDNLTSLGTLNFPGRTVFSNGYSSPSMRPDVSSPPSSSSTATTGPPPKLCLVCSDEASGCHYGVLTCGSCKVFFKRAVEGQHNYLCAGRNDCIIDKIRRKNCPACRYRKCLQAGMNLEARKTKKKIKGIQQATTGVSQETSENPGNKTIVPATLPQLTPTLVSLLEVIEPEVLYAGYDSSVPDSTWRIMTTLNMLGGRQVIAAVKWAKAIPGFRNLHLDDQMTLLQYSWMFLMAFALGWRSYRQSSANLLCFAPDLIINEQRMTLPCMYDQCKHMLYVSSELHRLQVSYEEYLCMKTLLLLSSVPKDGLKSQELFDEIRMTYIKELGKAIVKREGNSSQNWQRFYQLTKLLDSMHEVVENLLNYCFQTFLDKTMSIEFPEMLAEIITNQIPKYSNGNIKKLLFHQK

[5] = target: T2, Flag-tagged GR S211A mutant (non-phosphorylated GR mutant) (human, UniProt P04150 1-777); assay: as above
T2 construct: also called S211A-GR; S211A GR; not shown: Flag tag
T2 sequence: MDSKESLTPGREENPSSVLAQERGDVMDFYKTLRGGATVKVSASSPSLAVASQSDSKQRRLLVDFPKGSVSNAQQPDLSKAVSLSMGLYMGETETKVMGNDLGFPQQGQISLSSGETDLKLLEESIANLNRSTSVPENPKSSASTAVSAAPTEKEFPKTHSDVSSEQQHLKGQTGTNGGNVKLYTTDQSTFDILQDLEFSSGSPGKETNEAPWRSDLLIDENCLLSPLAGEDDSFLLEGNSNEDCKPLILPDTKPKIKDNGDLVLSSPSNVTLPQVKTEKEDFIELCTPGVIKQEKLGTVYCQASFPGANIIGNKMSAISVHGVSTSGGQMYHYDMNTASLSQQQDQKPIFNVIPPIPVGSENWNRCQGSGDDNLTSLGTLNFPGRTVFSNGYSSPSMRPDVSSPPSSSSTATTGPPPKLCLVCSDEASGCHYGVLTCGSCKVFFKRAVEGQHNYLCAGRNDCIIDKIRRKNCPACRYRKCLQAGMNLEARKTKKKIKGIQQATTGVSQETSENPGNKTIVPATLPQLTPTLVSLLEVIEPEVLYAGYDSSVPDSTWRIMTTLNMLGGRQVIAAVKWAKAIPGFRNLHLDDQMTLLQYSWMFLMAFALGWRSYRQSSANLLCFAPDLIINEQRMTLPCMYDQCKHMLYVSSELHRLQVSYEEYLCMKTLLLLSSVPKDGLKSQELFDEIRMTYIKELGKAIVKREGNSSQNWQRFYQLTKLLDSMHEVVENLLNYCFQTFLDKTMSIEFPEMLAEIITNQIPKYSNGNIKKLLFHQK

[6] = target: T3, Flag-tagged GR S211E mutant (phosphomimetic GR mutant) (human, UniProt P04150 1-777); assay: as above
T3 construct: also called S211E-GR; S211E GR; not shown: Flag tag
T3 sequence: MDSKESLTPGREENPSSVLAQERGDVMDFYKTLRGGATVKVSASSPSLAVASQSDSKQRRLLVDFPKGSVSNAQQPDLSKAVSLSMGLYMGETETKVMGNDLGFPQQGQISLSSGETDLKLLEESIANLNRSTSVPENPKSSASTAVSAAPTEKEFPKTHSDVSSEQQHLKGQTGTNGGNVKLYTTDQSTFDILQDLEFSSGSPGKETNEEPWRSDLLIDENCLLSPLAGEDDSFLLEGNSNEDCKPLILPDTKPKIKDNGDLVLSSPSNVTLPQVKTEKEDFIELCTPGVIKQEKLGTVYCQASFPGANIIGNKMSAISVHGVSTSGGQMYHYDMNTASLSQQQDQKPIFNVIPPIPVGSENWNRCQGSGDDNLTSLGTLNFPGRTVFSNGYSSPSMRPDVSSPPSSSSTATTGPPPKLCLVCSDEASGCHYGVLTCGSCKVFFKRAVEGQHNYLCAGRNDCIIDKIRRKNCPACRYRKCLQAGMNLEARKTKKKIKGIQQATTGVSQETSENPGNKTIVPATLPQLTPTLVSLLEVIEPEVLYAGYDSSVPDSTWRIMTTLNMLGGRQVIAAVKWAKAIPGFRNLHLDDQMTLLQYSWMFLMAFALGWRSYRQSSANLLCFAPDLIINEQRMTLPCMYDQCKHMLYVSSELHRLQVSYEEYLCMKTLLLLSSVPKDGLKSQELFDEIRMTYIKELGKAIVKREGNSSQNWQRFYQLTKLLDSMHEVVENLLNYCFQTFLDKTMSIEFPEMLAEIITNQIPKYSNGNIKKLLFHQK

B1: binds [1].

With B2 the “GR-FKBP51 complex level, PTSD patients relative to trauma controls (Trauma = 1)” value [2] was 1.46 fold of control and the “GR-FKBP51 complex level, PTSD patients relative to healthy controls (CTRL = 1)” value [3] was 1.41 fold of control.

B3: GST-FKBP51_TPR (GST fusion of the tetratricopeptide repeat domain of FKBP51) (other)
chain: EMDTKEKLEQAAIVKEKGTVYFKGGKYMQAVIQYGKIVSWLEMEYGLSEKESKASESFLLAAFLNLAMCYLKLREYTKAVECCDKALGLDSANEKGLYRRGEAQLLMNEFESAKGDFEKVLEVNPQNKAARLQISMCQKKAKEHNERDRRIYANMFKKFAEQDAKEEANKAMGKKTSEGVTNEKGTDSQAMEEEKPEGHV
notes: also called GST-TPR; FKBP51 TPR domain; not shown: glutathione S-transferase (GST) tag; vector stated only for the GR fragments (pGEX-4T3)
B3 was tested, and the Kd [4] was 3.31 µM, the Kd [5] was 0.412 µM and the Kd [6] was 3.9 µM.
